Data: publication PMC11931385, “Structural and functional analysis of cancer-associated missense variants in the retinoblastoma protein pocket domain” (The Journal of Biological Chemistry, 2025)
Numbering of substitutions follows the chain as printed. Numbers in names are those of the source. No end group written: not given here. TMR = tetramethyl rhodamine dye

Key:
Rb^P D604G = target: T1, Rb^P D604G (human, UniProt P06400 380-788, D604G); experiment: fluorescence polarisation; 37 °C, after the 25 °C reading ramped over 7 min to 37 °C and 2 min incubation; unlabeled Rb^P against 1.5 nM TMR-E2F1^TD or 7.5 nM TMR-E7^LxCxE; 25 mM Tris pH 8.0, 200 mM NaCl, 1 mM DTT, 0.1% Tween-20; apparent Kd; conditions: both partners purified
T1 construct: also called variant 36
T1 sequence (looked up): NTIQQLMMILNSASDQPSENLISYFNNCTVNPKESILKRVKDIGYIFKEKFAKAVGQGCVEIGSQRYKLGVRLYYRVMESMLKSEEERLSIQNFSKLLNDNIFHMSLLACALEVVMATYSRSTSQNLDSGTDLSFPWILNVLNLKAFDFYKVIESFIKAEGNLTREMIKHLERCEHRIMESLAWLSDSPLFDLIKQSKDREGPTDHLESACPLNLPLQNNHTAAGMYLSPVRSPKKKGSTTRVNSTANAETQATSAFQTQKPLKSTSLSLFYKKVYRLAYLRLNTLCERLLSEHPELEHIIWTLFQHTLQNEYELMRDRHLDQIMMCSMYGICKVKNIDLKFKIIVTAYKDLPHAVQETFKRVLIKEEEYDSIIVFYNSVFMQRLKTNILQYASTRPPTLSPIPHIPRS

Rb^P R451C = target: T2, Rb^P R451C (human, UniProt P06400 380-788, R451C); experiment: as above; conditions: both partners purified
T2 construct: also called variant 5
T2 sequence (looked up): T1 sequence (looked up) with R72C, G225D

B1: TMR-E2F1^TD, peptide of the E2F1 transactivation domain (peptide)
peptide: {TMR}-GEGIRDLFDCDFGDLTPLD
notes: also called E2F^TD; source: synthetic peptide, bought: GenScript
- Kd (Rb^P D604G): 50 nM
- Kd (Rb^P R451C): 51 nM

B2: TMR-E7^LxCxE, LxCxE peptide of the E7 oncoprotein from HPV (peptide)
peptide: DLYCYEQLN
modifications: also: TMR label, position not given here
notes: source: synthetic peptide, bought: GenScript
- Kd (Rb^P D604G): 26 nM
- Kd (Rb^P R451C): 19 nM
